B1: WDFY2 (parent)
chain: FWNFKQMWDSKKIGLRQHHCRKCG
B2: ZNF449 (parent)
chain: YRHQRLHTGERPYECTVCKKRFTR

Variants of: B1
Test: protein stability index of a GFP-peptide fusion (GPS, HEK-293T) (PSI 1-6); higher = more stable
Settings: c terminus: a fixed tail appended
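Note: lentivirally expressed fusions sorted by FACS into six bins by GFP to DsRed ratio, PSI derived from sequencing read proportions per bin multiplied by bin number.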

Variant | protein stability index
Q17K | 1.38
Q17G | 1.49
Q17S | 1.99
Q17Y | 2.12
Q17P | 2.52
Q17L | 1.99
Q17V | 2.13
Q17T | 1.2
Q17W | 1.82
Q17R | 2
Q17I | 2.84
Q17M | 1.91
Q17F | 1.35
Q17D | 1.9
Q17C | 1.61
Q17A | 2.32
Q17N | 1.35
Q17E | 1.53
Q17H | 2.18
G24S | 2.39
G24W | 1.68
G24Q | 1.95
G24C | 2.4
G24K | 1.98
G24M | 2.38

Variant | protein stability index
G24I | 1.51
G24A | 1.58
G24D | 2.09
G24P | 2.03
G24E | 2.13
G24Y | 2.73
G24L | 1.43
G24V | 3.27
G24N | 1.67
G24H | 1.71
G24T | 2.7
G24R | 2.3
G24F | 1.23
K22N | 1.57
K22A | 1.09
K22V | 1.7
K22S | 2.72
K22G | 1.65
K22Q | 2.21
K22E | 1.65
K22D | 1.79
K22M | 1.8
K22H | 1.23
K22Y | 1.78
K22T | 2.87

Variant | protein stability index
K22I | 4.49
K22L | 1.47
H18F | 1.51
H18K | 2.06
H18E | 2.25
H18A | 1.73
H18P | 2.05
H18W | 2.18
H18Y | 2.5
H18T | 1.56
H18C | 2.94
H18I | 1.8
H18D | 1.79
H18V | 1.83
H18L | 1.76
H18Q | 1.44
H18M | 1.38
H18R | 2.5
H18S | 1.84
H18N | 3.5
C23G | 2.14
C23S | 1.78
C23L | 2.01
C23A | 1.78
C23M | 1.94

Variant | protein stability index
C23I | 2.48
C23K | 2.38
C23Y | 1.92
C23N | 2.21
C23V | 1.79
C23H | 2.24
C23T | 2.44
C23D | 1.89
C23R | 1.79
C23P | 2.16
C23W | 2.45
C23F | 2.17
C20R | 2.37
C20T | 2.28
C20Y | 1.84
C20M | 3.04
C20H | 3.07
C20D | 1.89
C20A | 1.82
C20K | 2.15
C20S | 2.49
C20N | 2.31
C20G | 2.91
C20Q | 2.15
C20W | 3.08

Variant | protein stability index
C20V | 1.73
C20P | 1.94
C20L | 2.09
C20F | 2.54
C20I | 2.01
C20E | 2.47
L15V | 2.34
L15N | 2.11
L15Y | 1.93
L15D | 2.17
L15R | 2.61
L15F | 1.81
L15H | 1.71
L15P | 2.68
L15G | 2.14
L15T | 2.01
L15M | 1.97
L15A | 2.01
L15Q | 1.95
L15W | 1.42
L15E | 2.48
L15K | 2.32
L15S | 2.25
L15I | 1.92
G14F | 1.93

Variant | protein stability index
G14L | 2
G14R | 1.9
G14Y | 2.53
G14H | 1.82
G14I | 1.48
G14D | 2.41
G14M | 1.89
G14P | 1.46
G14T | 2.4
G14S | 3.27
G14N | 1.95
G14A | 1.66
G14W | 1.91
G14Q | 1.32
G14V | 2
G14K | 2.14
G14C | 2.45
H19D | 2.11
H19N | 2.68
H19K | 2.39
H19G | 2.38
H19T | 1.72
H19S | 2.02
H19E | 1.62
H19F | 1.79

Variant | protein stability index
H19C | 1.73
H19W | 1.69
H19Y | 1.76
H19A | 1.86
H19P | 2.17
H19I | 2.22
H19L | 2.02
H19R | 2.39
H19Q | 1.87
H19V | 1.98
R21I | 1.29
R21S | 1.72
R21G | 1.85
R21Y | 1.58
R21D | 2.04
R21T | 1.71
R21E | 2.02
R21N | 2.46
R21Q | 2.11
R21F | 1.76
R21M | 2.21
R21L | 1.1
R21H | 2.66
R21V | 1.21
R21A | 2.34

Variant | protein stability index
R21K | 2.01
R21P | 1.53
R16T | 1.67
R16F | 3.39
R16L | 1.76
R16H | 2.06
R16N | 1.84
R16S | 2.15
R16V | 2.1
R16M | 1.94
R16C | 1.59
R16E | 2.92
R16Q | 2.66
R16A | 1.97
R16P | 3.42
R16Y | 1.85
R16K | 1.53
R16D | 2.06
R16G | 1.54

Variants of: B2
Test: as above
Settings: c terminus: a fixed tail appended

Variant | protein stability index
H3P | 2.68
H3C | 2.4
H3K | 2.05
H3D | 2.15
H3E | 1.83
H3T | 2.56
H3M | 2.14
H3L | 1.52
H3S | 2.35
H3Y | 1.81
H3N | 2.69
H3R | 2.44
H3Q | 2.21
H3G | 2.28
H3A | 1.89
H3I | 2.12
H3W | 1.65
H3V | 2.03
H3F | 1.66
L6H | 2.73
L6N | 2.63
L6G | 2.61
L6F | 2.17
L6K | 2.34

Variant | protein stability index
L6V | 2.17
L6Y | 2.74
L6E | 2.09
L6A | 2.77
L6R | 2.7
L6C | 3.06
L6D | 2.37
L6P | 2.4
L6T | 2.51
L6S | 2.38
L6Q | 2.38
L6M | 2.37
L6W | 2.38
L6I | 2.37
T8I | 2.41
T8E | 2.24
T8A | 2.32
T8G | 2.38
T8C | 2.4
T8H | 2.7
T8F | 2.31
T8D | 2.27
R5K | 2.18
R5S | 2.24

Variant | protein stability index
R5T | 1.69
R5L | 2.15
R5F | 2.49
R5M | 2.25
R5P | 2.08
R5W | 2.29
R5N | 2.21
R5C | 3.51
R5Q | 2.61
R5E | 1.91
R5D | 2.06
R5Y | 2.2
R5A | 2.08
R5I | 1.89
R5H | 3
R5V | 2.19
R5G | 2.31
R2T | 1.8
R2C | 2.66
R2F | 1.88
R2P | 1.63
R2W | 1.57
R2V | 3.09
R2E | 2.65

Variant | protein stability index
R2Y | 2.38
R2Q | 2.12
R2M | 2.33
R2I | 2.65
R2A | 1.81
R2G | 2.92
R2D | 2.48
R2N | 1.56
R2L | 2.16
R2S | 2.76
R2K | 2.32
Y1F | 1.65
Y1Q | 2.88
Y1L | 2.83
Y1P | 2.7
Y1N | 2.35
Y1T | 2.65
Y1W | 1.97
Y1C | 3.93
Y1V | 2.45
Y1G | 2.21
Y1K | 2.77
Y1R | 3.05
Y1M | 2.92

Variant | protein stability index
Y1A | 3.22
Y1D | 2.58
Y1S | 3.05
Y1I | 2.55
Y1H | 2.98
Y1E | 3.16
H7M | 1.97
H7T | 2.35
H7N | 2.64
H7E | 2.09
H7W | 3.01
H7V | 2.18
H7F | 1.46
H7R | 2.24
H7G | 2.14
H7A | 2.17
H7I | 2.16
H7S | 2.05
H7P | 1.84
H7K | 2.75
H7D | 1.92
H7Q | 2.53
H7Y | 1.61
H7L | 2.15

Variant | protein stability index
H7C | 2.65
Q4Y | 1.78
Q4A | 2.44
Q4L | 1.78
Q4M | 1.73
Q4E | 2.3
Q4H | 3.41
Q4W | 2.11
Q4K | 2.39
Q4T | 2.64
Q4I | 1.93
Q4D | 2.22
Q4F | 1.88
Q4V | 2.13
Q4P | 2.03
Q4S | 2.35
Q4C | 2.99
Q4N | 2.24
Q4G | 2.34
Q4R | 2.36
